Data reported in publication PMC12647877, “The SMC Hinge is a Selective Gate for Obstacle Bypass” (Nature Communications, 2025).

T1: scSmc4(598-923) condensin hinge/coiled coil with V721C and M821C (S. cerevisiae, UniProt Q12267 598-923, V721C | M821C)
T1 construct: Smc4, S. cerevisiae condensin, residues 598-923; also called scSmc4 hinge; source: Sf9, co-purified with scSmc2 hinge (Strep-Tactin XT, cation exchange, SEC)
T1 sequence (looked up): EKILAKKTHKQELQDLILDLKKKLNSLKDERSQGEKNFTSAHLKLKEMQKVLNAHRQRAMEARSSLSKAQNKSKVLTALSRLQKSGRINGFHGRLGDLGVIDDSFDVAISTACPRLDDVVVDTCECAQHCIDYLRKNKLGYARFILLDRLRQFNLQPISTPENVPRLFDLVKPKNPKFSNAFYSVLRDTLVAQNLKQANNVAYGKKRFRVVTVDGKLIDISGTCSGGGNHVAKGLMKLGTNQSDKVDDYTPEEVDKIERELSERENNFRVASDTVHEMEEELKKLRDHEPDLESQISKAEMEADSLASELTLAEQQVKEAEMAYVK

B1: bsuSmc(400-776; C437S, R558C, N634C) hinge/coiled coil (domain or fragment, B. subtilis, UniProt P51834 400-776, looked up)
chain: QLLDDQMSQSAVTLQRLADNNEKHLQERHDISARKAASETEFARIEQEIHSQVGAYRDMQTKYEQKKRQYEKNESALYQAYQYVQQARSKKDMLETMQGDFSGFYQGVKEVLKAKERLGGIRGAVLELISTEQKYETAIEIALGASAQHVVTDDEQSACKAIQYLKQNSFGRATFLPLSVIRDRQLQSRDAETAARHSSFLGVASELVTFDPAYRSVIQNLLGTVLITEDLKGACELAKLLGHRYRIVTLEGDVVNPGGSMTGGAVKKKNNSLLGRSRELEDVTKRLAEMEEKTALLEQEVKTLKHSIQDMEKKLADLRETGEGLRLKQQDVKGQLYELQVAEKNINTHLELYDQEKSALSESDEERKVRKRKLEEE
notes: Smc (chromosome partition protein Smc), Bacillus subtilis, residues 400-776; also called bsuSmc hinge; B. subtilis Smc hinge; source: E. coli BL21(DE3) Gold, purified (as the scSmc5/6 hinge constructs: HisTrap, SEC)
B2: scSmc2(443-740) condensin hinge/coiled coil with S560C and K639C (domain or fragment, S. cerevisiae, UniProt P38989 443-740, looked up)
chain: KDNELNVKHVKQCQETCDKLRARLVEYGFDPSRIKDLKQREDKLKSHYYQTCKNSEYLKRRVTNLEFNYTKPYPNFEASFVHGVVGQLFQIDNDNIRYATALQTCAGGRLFNVVVQDCQTATQLLERGRLRKRVTIIPLDKIYTRPISSQVLDLAKKIAPGKVELAINLIRFDESITKAMEFIFGNSLICEDPETACKITFHPKIRARSITLQGDVYDPEGTLSGGSRNTSESLLVDIQKYNQIQKQIETIQADLNHVTEELQTQYATSQKTKTIQSDLNLSLHKLDLAKRNLDANPS
notes: Smc2, S. cerevisiae condensin, residues 443-740; also called scSmc2 hinge; source: Sf9, co-purified with scSmc4 hinge (Strep-Tactin XT, cation exchange, SEC)

Key:
[1] = target: the molecule itself; test: cross-linking; cysteine cross-linking with BMOE (1 mM, 45 s, quenched with DTT) of purified hinge/coiled coil constructs in 20 mM Tris-HCl, 50 mM NaCl; SDS-PAGE, and denaturing agarose gels of entrapped ssDNA circles
[2] = target: T1, scSmc4(598-923) condensin hinge/coiled …; test: cross-linking; cysteine cross-linking with BMOE (0.58 mM, 6 min on ice) of purified scSmc2/4 hinge, 1.4 µM in CB buffer (50 mM NaCl, 1 mM MgCl2, 50 mM HEPES pH 7.5, 1 mM TCEP, 5 % glycerol); SDS-PAGE; settings: both partners purified

Binder	binding result [1]	binding result [2]
B1	binds	
B2		binds
